Data as given in the supplement of paper PMC10567573.

B1: ZNF511 (parent)
chain: HLYPADFRFDKPKKSRSPASAEAP

Variants of: B1
Assay: protein stability index of a GFP-peptide fusion (GPS, HEK-293T) (PSI 1-6); higher = more stable
Conditions: c terminus: a fixed tail appended
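Further: lentivirally expressed fusions sorted by FACS into six bins by GFP to DsRed ratio, PSI derived from sequencing read proportions per bin multiplied by bin number.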

Variant | protein stability index
HLYPADFRFDKPKKSSSPASAEAP | 2.76
HLYPADFRFDKPKKSISPASAEAP | 2.6
HLYPADFRFDKPKKSASPASAEAP | 3.51
HLYPADFRFDKPKKSWSPASAEAP | 3.05
HLYPADFRFDKPKKSVSPASAEAP | 2.51
HLYPADFRFDKPKKSTSPASAEAP | 3.44
HLYPADFRFDKPKKSFSPASAEAP | 2.73
HLYPADFRFDKPKKSNSPASAEAP | 3.17
HLYPADFRFDKPKKSKSPASAEAP | 3.36
ALYPADFRFDKPKKSRSPASAEAP | 3.95
LLYPADFRFDKPKKSRSPASAEAP | 3.94
FLYPADFRFDKPKKSRSPASAEAP | 4.32
YLYPADFRFDKPKKSRSPASAEAP | 2.08
SLYPADFRFDKPKKSRSPASAEAP | 4.48
PLYPADFRFDKPKKSRSPASAEAP | 4.58
NLYPADFRFDKPKKSRSPASAEAP | 4.2
TLYPADFRFDKPKKSRSPASAEAP | 4.19
HLYPADFRFDKPKKSRSPFSAEAP | 2.05
HLYPADFRFDKPKKSRSPHSAEAP | 2.68
HLYPADFRFDKPKKSRSPYSAEAP | 2.69
HLYPADFRFDKPKKSRSPTSAEAP | 3.29
HLYPADFRFDKPKKSRSPKSAEAP | 3.54
HLYPADFRFDKPKKSRSPDSAEAP | 3.36
HLYPADFRFDKPKKSRSPRSAEAP | 2.81

Variant | protein stability index
HLYPADFRFDKPKKSRSPVSAEAP | 2.87
HLYPADFRFDKKKKSRSPASAEAP | 2.96
HLYPADFRFDKWKKSRSPASAEAP | 3.02
HLYPADFRFDKAKKSRSPASAEAP | 2.83
HLYPADFRFDKSKKSRSPASAEAP | 2.64
HLYPADFRFDKQKKSRSPASAEAP | 3.18
HLYPADFRFDKGKKSRSPASAEAP | 3.02
HLYPADFRFDKEKKSRSPASAEAP | 3.69
HLYPVDFRFDKPKKSRSPASAEAP | 3.6
HLYPNDFRFDKPKKSRSPASAEAP | 2.29
HLYPLDFRFDKPKKSRSPASAEAP | 3.02
HLYPQDFRFDKPKKSRSPASAEAP | 2.16
HLYPWDFRFDKPKKSRSPASAEAP | 1.63
HLYPFDFRFDKPKKSRSPASAEAP | 2.63
HLYPHDFRFDKPKKSRSPASAEAP | 3.06
HLYPRDFRFDKPKKSRSPASAEAP | 3.21
HLYPADFRFIKPKKSRSPASAEAP | 1.87
HLYPADFRFSKPKKSRSPASAEAP | 3.22
HLYPADFRFGKPKKSRSPASAEAP | 2.85
HLYPADFRFCKPKKSRSPASAEAP | 2.15
HLYPADFRFYKPKKSRSPASAEAP | 2.87
HLYPADFRFMKPKKSRSPASAEAP | 2.99
HLYPADFRFNKPKKSRSPASAEAP | 2.39
HLYPADFRFDKPQKSRSPASAEAP | 3.4

Variant | protein stability index
HLYPADFRFDKPEKSRSPASAEAP | 3.34
HLYPADFRFDKPGKSRSPASAEAP | 2.92
HLYPADFRFDKPSKSRSPASAEAP | 2.91
HLYPADFRFDKPHKSRSPASAEAP | 2.78
HLYPADFRFDKPMKSRSPASAEAP | 2.84
HLYPADFRFDKPYKSRSPASAEAP | 3.56
HLYPADFRFDKPFKSRSPASAEAP | 2.7
HLYPADFRFDKPKKSRSPASAEIP | 2.69
HLYPADFRFDKPKKSRSPASAEPP | 3.37
HLYPADFRFDKPKKSRSPASAEQP | 3.06
HLYPADFRFDKPKKSRSPASAECP | 2.73
HLYPADFRFDKPKKSRSPASAEMP | 2.53
HLYPADFRFDKPKKSRSPASAEKP | 3.19
HLYPADFRFDKPKKSRSPASAETP | 2.72
HLYPADFRFDKPKKSRSPASAERP | 2.8
HLYPADFRKDKPKKSRSPASAEAP | 4.12
HLYPADFRNDKPKKSRSPASAEAP | 2.63
HLYPADFRTDKPKKSRSPASAEAP | 2.85
HLYPADFRDDKPKKSRSPASAEAP | 2.1
HLYPADFRYDKPKKSRSPASAEAP | 3.29
HLYPADFRQDKPKKSRSPASAEAP | 2
HLYPADFRHDKPKKSRSPASAEAP | 2.91
HLHPADFRFDKPKKSRSPASAEAP | 2.69
HLDPADFRFDKPKKSRSPASAEAP | 4.58

Variant | protein stability index
HLWPADFRFDKPKKSRSPASAEAP | 3.71
HLEPADFRFDKPKKSRSPASAEAP | 3.71
HLKPADFRFDKPKKSRSPASAEAP | 3.84
HLYPADFRFDKPKKSRSGASAEAP | 2.58
HLYPADFRFDKPKKSRSDASAEAP | 3.09
HLYPADFRFDKPKKSRSKASAEAP | 3.08
HLYPADFRFDKPKKSRSLASAEAP | 2.73
HLYPADFRFDKPKKSRSMASAEAP | 2.78
HLYPADFRFDKPKKSRSEASAEAP | 2.74
HLYPADFRFDKPKKSRSQASAEAP | 2.56
HLYPADFRFDKPKKSRSVASAEAP | 2.33
HLYPADFNFDKPKKSRSPASAEAP | 3.1
HLYPADFIFDKPKKSRSPASAEAP | 2.03
HLYPADFQFDKPKKSRSPASAEAP | 3.11
HLYPADFCFDKPKKSRSPASAEAP | 2.8
HLYPADFDFDKPKKSRSPASAEAP | 4.13
HLYPADFRFDAPKKSRSPASAEAP | 3.14
HLYPADFRFDDPKKSRSPASAEAP | 3.23
HLYPADFRFDSPKKSRSPASAEAP | 3.32
HLYPADFRFDKPKYSRSPASAEAP | 2.62
HLYPADFRFDKPKESRSPASAEAP | 3.23
HLYPADFRFDKPKASRSPASAEAP | 3.3
HLYPADFRFDKPKWSRSPASAEAP | 2.56
HLYPADFRFDKPKRSRSPASAEAP | 2.01

Variant | protein stability index
HLYPADFRFDKPKGSRSPASAEAP | 3.22
HLYPADFRFDKPKPSRSPASAEAP | 2.63
HLYPADFRFDKPKDSRSPASAEAP | 3.29
HLYPADFRFDKPKFSRSPASAEAP | 2.26
HLYPADFRFDKPKMSRSPASAEAP | 3.17
HLYPADFRFDKPKISRSPASAEAP | 2.67
HLYPADFRFDKPKSSRSPASAEAP | 3.08
HLYPADFRFDKPKNSRSPASAEAP | 3.04
HLYPADFRFDKPKKSRSPASAGAP | 3.13
HLYPADFRFDKPKKSRSPASAVAP | 2.7
HLYPADFRFDKPKKSRSPASAWAP | 2.44
HLYPADFRFDKPKKSRSPASADAP | 2.99
HLYPADFRFDKPKKSRSPASACAP | 2.67
HLYPADFRFDKPKKSRSPASANAP | 2.9
HLYPADFRFDKPKKSRSPASAMAP | 2.19
HLYPADFRFDKPKKSRSPASAAAP | 2.7
HLYPADFRFDKPKKSRSPASATAP | 2.64
HLYPADFRFDKPKKSRSPASAQAP | 2.61
HLYPADFRFDKPKKSRSPASAHAP | 2.63
HLYPADFRFDKPKKSRSPASASAP | 2.83
HLYPADFRFDKPKKSRSPASGEAP | 3
HLYPADFRFDKPKKSRSPASVEAP | 2.71
HLYPADFRFDKPKKSRSPASNEAP | 2.96
HLYPADFRFDKPKKSRSPASHEAP | 3.12

Variant | protein stability index
HLYPADFRFDKPKKSRSPASSEAP | 3.4
HLYPADFRFDKPKKSRSPASYEAP | 2.95
HLYPADFRFDKPKKSRSPASCEAP | 3.1
HLYPADFRFDKPKKSRSPASIEAP | 2.82
HLYQADFRFDKPKKSRSPASAEAP | 3.94
HLYVADFRFDKPKKSRSPASAEAP | 3.24
HLYAADFRFDKPKKSRSPASAEAP | 3.96
HLYHADFRFDKPKKSRSPASAEAP | 3.95
HLYIADFRFDKPKKSRSPASAEAP | 3.56
HLYLADFRFDKPKKSRSPASAEAP | 3.56
HLYGADFRFDKPKKSRSPASAEAP | 3.21
HLYYADFRFDKPKKSRSPASAEAP | 2.73
HLYPADFRFDKPKKSRSPAPAEAP | 2.72
HLYPADFRFDKPKKSRSPACAEAP | 2.92
HLYPADFRFDKPKKSRSPAFAEAP | 2.22
HLYPADFRFDKPKKSRSPAYAEAP | 2.61
HLYPADFRFDKPKKSRSPAWAEAP | 1.8
HLYPADFRFDKPKKSRSPANAEAP | 3.36
HLYPADFRFDKPKKSRSPADAEAP | 2.97
HLYPADFRFDKPKKSRSPAVAEAP | 2.82
HLYPADFRFDKPKKSRSPAKAEAP | 2.71
HLYPADFRFDKPKKSRSPAQAEAP | 2.42
HLYPADKRFDKPKKSRSPASAEAP | 4.71
HLYPADHRFDKPKKSRSPASAEAP | 3.98

Variant | protein stability index
HLYPADERFDKPKKSRSPASAEAP | 5.23
HLYPADWRFDKPKKSRSPASAEAP | 2.09
HLYPADTRFDKPKKSRSPASAEAP | 4.25
HLYPADQRFDKPKKSRSPASAEAP | 4.62
HLYPADCRFDKPKKSRSPASAEAP | 4.29
HLYPADGRFDKPKKSRSPASAEAP | 4.42
HLYPADFRFDKPKKSRSPASAEAQ | 2.6
HLYPADFRFDKPKKSRSPASAEAD | 3.44
HLYPADFRFDKPKKSRSPASAEAK | 2.97
HLYPADFRFDKPKKSRSPASAEAI | 2.61
HLYPADFRFDKPKKSRSPASAEAT | 2.71
HLYPADFRFDKPKKSRSPASAEAS | 3.62
HLYPADFRFDKPKKSRSPASAEAL | 2.92
HLYPADFRFDKPKKSRSPASAEAW | 2.14
HYYPADFRFDKPKKSRSPASAEAP | 3.84
HTYPADFRFDKPKKSRSPASAEAP | 4.64
HHYPADFRFDKPKKSRSPASAEAP | 3.58
HFYPADFRFDKPKKSRSPASAEAP | 4.37
HMYPADFRFDKPKKSRSPASAEAP | 3.35
HWYPADFRFDKPKKSRSPASAEAP | 2.87
HDYPADFRFDKPKKSRSPASAEAP | 4.91
HGYPADFRFDKPKKSRSPASAEAP | 4.37
HRYPADFRFDKPKKSRSPASAEAP | 4.1
HLYPADFRFDKPKKPRSPASAEAP | 3.19

Variant | protein stability index
HLYPADFRFDKPKKKRSPASAEAP | 3.24
HLYPADFRFDKPKKQRSPASAEAP | 3.19
HLYPADFRFDKPKKWRSPASAEAP | 1.93
HLYPADFRFDKPKKIRSPASAEAP | 3.23
HLYPADFRFDKPKKMRSPASAEAP | 2.88
HLYPADFRFDKPKKNRSPASAEAP | 2.67
HLYPADFRFDKPKKARSPASAEAP | 3.39
HLYPADFRFDKPKKRRSPASAEAP | 1.78
HLYPASFRFDKPKKSRSPASAEAP | 3.17
HLYPAKFRFDKPKKSRSPASAEAP | 2.22
HLYPACFRFDKPKKSRSPASAEAP | 2.52
HLYPARFRFDKPKKSRSPASAEAP | 2.59
HLYPAQFRFDKPKKSRSPASAEAP | 2.18
HLYPALFRFDKPKKSRSPASAEAP | 2.61
HLYPADFRFDKPKKSRIPASAEAP | 2.03
HLYPADFRFDKPKKSRNPASAEAP | 3.16
HLYPADFRFDKPKKSRKPASAEAP | 3.01
HLYPADFRFDKPKKSRDPASAEAP | 3.28
HLYPADFRFDKPKKSRMPASAEAP | 2.77
HLYPADFRFDKPKKSRWPASAEAP | 2.27
